Our source for the activity (fold activation) and activity values is patent publication US20020081614, “Functional genomics using zinc finger proteins” (Sangamo BioSciences, Inc., published 2002).

Series [1] has as its system M6-2009S ZFP-VP16 (pcV-M6-2009S, also written M6-2009A) (synthetic construct). Kind of series: cell_activity. Particulars: 293 cells; reporter pGLPVFH, table title endogenous VEGF; location -363.
Series [2] has as its system M6-1878S ZFP-VP16 (pcV-M6-1878S) (synthetic construct). Kind of series: cell_activity. Particulars: 293 cells; reporter pGLPVFH, table title endogenous VEGF; location -536.
In series [3] the test system is M6-120S ZFP-VP16 (pcV-M6-120S) (synthetic construct). Kind of series: cell_activity. Conditions: 293 cells; reporter pGLPVFH, table title endogenous VEGF; location -2243.
The test system of series [4] is M6-111S ZFP-KRAB (pcK-M6-111S, printed pcK-M6-11S) (synthetic construct). The series can be described thus: cell_activity. Conditions: cotransfected luciferase reporter; about 40% repression of endogenous VEGF. In general terms: Reporter assays use an easily measured gene product as a stand-in for the process of interest.
Series [5] concerns M6-111S ZFP-VP16 (pcV-M6-111S) (synthetic construct). Kind of series: cell_activity. Particulars: 293 cells; target printed ATGGGGGTC in Table 1 but ATGGGGGTG in p236 and p241.
Series [6] addresses T1, VF471A-VP16 (pcV-VF471A) (synthetic construct).
T1 chain: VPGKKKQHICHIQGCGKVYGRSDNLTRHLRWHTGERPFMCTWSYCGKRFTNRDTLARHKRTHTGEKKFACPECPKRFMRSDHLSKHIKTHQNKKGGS
The series can be described thus: cell_activity; luciferase reporter in 293 cells, vs pcV-RAN. The method, then: All plasmid DNA was prepared using Qiagen plasmid purification kits. The human embryonic kidney 293 cells were seeded into each well of a 6-well plate with a density to reach approximately 70% confluence the next day. Cells were co-transfected with 50 ng effector DNA (ZFP-expression plasmid), 900 ng reporter DNA and 100 ng pCMV-LacZ DNA using either Lipofectamine (GIBCO-BRL, MD) or GenePORTER (Gene Therapy Systems Inc, CA) transfection reagent. The co-expressed β-galactosidase activity was used a control to normalize the luciferase activity. Cell lysates were harvested 40 to 48 hours after transfection. Luciferase assays were performed using the Dual-Light Luciferase and β-galactosidase Reporter Assay System (Tropix, MA).
When the VP16 domain was replaced with a peptide, which has no transcription regulation activity, this zinc finger protein (pcV-VF471A-cat) lost its activity of trans-activating the luciferase gene. […] Therefore, the DNA binding domain (VF471A ZFP) combined with the regulation domain (VP16) in this example were able to turn on the gene at an appropriate target sites.

In series [1], “GAAGGGGGC (double strand) [M6-2009S site]” gave an activity (fold activation) of 4.5. Regarding “GAGTGTGTG (double strand) [M6-1878S site]”, the activity (fold activation) in series [2] is 4.2. With “GGGGGTGCC (double strand) [M6-120S site]”, the activity (fold activation) in series [3] was found to be 13.8. In the case of “ATGGGGGTG (double strand) [M6-111S site]”, the activity in series [4] is 80 % repression. The molecule also had an activity (fold activation) in series [5] of 4.1.

B1: reporter with three tandem M6-1892S sites (pGLP-VF471x3) (dsDNA)
DNA 1: GGGGTTGAG
DNA 2: CTCAACCCC
In the case of B1, the activity in series [6] is 8 fold activation.
